Here are results for one molecule from US20170174756A1 (AstraZeneca / MedImmune, published 2017).

For this test, the target named is T1, Biotin Ang2 (R & D Systems) (UniProt O15123 19-496, biotinylated (sites not given)).
T1 sequence (looked up): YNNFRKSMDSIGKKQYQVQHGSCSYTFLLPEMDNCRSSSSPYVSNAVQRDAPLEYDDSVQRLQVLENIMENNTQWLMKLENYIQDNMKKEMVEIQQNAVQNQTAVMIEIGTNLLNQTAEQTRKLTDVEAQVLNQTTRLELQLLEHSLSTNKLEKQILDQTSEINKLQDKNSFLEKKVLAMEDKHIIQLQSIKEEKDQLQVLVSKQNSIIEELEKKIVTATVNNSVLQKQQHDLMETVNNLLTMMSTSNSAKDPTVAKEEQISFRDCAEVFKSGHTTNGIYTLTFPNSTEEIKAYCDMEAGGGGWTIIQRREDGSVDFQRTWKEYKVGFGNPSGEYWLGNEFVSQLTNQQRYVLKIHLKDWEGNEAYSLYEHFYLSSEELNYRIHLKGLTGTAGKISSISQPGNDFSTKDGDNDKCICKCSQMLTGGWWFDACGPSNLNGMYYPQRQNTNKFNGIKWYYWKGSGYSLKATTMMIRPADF
The experiment in a line: competition ELISA: Tie-2 Fc coated on the plate, antibody varied, blocked ligand binding is Biotin Ang2 to Tie-2 Fc, streptavidin HRP, O.D. 450 nm. As for the experimental part:
The following day, plates were blocked for 1 hour at room temperature with 200 μl of phosphate buffered saline (PBS) (Invitrogen, Carlsbad, Calif.) containing 0.5% bovine serum albumin (BSA) (Sigma, St. Louis, Mo.) and 0.1% Tween-20 (Sigma, St. Louis, Mo.). Plates were washed 3 times with wash buffer (PBS containing 0.05% Tween-20). […] Plates were washed 3 times with wash buffer. Following the wash, 100 ul of 1:5000 streptavidin HRP (Pierce, Rockford, Ill.) dilution in wash buffer were added and incubated for 1 hour at room temperature. Plates were washed 3 times with wash buffer. Plates were developed by adding 100 μl of TMB peroxidase substrate (KPL, Gaithersburg, Md.) for 5 minutes. The reaction was stopped by adding 100 μl/well of 1M phosphoric acid. Optical densities were measured at 450 nm with a microplate reader (Molecular Devices, Sunnyvale, Calif.).

Values joined by “and” are separate entries in the source; they are usually repeats but may differ in a detail not shown here. Equal entries are not always repeated.

B1: Ang-2 antibody 3.19.3 (antibody, V domains shown)
VH: QVQLVESGGGVVQPGRSLRLSCAASGFTFTNYGMHWGRQAPGKGLEWVAVISHDGNNKYYVDSVKGRFTISRDNSKNTLYLQMNSLRAEDTAVYYCAREGIDFWSGLNWFDPWGQGTLVTVSS
VL: EIVLTQSPGTLSLSPGERATLSCRASQSITGSYLAWYQQKPGQAPRLLICGASSWATGIPDRFSGSGSGTDFTLTISRLEPEDFAVYYCQQYSSSPITFGQGTRLEIKR
notes: Fully human monoclonal antibody; also called WT
For B1, the “IC50 (read off the curve)” value is ~0.1 µg/mL and ~0.2 µg/mL.
